Primed or numbered codes have the meaning given here. Where no end group is shown, it is not given here. [ ]: non-standard residue; d: D form. 5,6‑carboxyfluorescein = 5,6-carboxyfluorescein; Phe(4-CF3) = N[C@@H](Cc1ccc(C(F)(F)F)cc1)C(=O)O; β3hD = NC(CC(=O)O)CC(=O)O; Nle = CCCC[C@H](N)C(=O)O; Pip′ = not defined here
T1: E. coli Exonuclease I (E. coli, UniProt P04995 1-471)
T1 construct: Exonuclease I of E. coli, from plasmid pET14b-E. coli Exonuclease I (Addgene 104552); The His tag was cut off with thrombin only for the purified protein; also called ExoI; Exol; source: E. coli BL21 (DE3) pLysS, purified (Ni-NTA, heparin); also in cell lysate (pull-down)
T1 sequence: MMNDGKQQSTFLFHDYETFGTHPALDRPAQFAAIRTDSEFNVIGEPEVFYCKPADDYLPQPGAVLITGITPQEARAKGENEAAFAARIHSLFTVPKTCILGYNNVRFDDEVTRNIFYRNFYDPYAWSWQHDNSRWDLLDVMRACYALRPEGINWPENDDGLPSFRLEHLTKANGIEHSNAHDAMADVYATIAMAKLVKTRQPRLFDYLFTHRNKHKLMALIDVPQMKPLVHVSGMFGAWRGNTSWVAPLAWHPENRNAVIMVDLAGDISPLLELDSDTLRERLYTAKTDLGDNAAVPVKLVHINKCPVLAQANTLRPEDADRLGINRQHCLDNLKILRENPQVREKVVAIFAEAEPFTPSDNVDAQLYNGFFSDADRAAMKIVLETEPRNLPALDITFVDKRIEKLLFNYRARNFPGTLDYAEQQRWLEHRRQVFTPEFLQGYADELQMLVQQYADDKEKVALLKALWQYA

T2: Escherichia coli RecO (Escherichia coli, UniProt P0A7H3 1-242)
T2 construct: RecO of Escherichia coli, synthetic gene in pET28a+ with a TEV site at the 5' end; The His tag was cut off with TEV protease only for the purified protein; source: E. coli Rosetta, purified (Ni-NTA, heparin); also in cell lysate (pull-down); not shown: His tag, N-terminal, cleaved
T2 sequence: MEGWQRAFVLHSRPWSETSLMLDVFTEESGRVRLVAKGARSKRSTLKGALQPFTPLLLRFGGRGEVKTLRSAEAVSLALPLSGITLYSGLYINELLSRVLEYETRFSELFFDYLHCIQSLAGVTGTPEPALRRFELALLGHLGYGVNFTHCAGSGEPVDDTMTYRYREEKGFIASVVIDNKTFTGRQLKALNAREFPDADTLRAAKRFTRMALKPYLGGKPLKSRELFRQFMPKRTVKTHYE


Key:
Settings in all cases: both partners purified
[1] = target: T1, E. coli Exonuclease I; test: ITC; peptide in the syringe titrated into ExoI in the cell; 20 mM Tris–HCl pH 8.0, 100 mM NaCl, 1 mM MgCl2, 4% glycerol, 1 mM β-mercaptoethanol; model A + B = C, stoichiometry fixed to 1:1, incompetent fraction fitted
[2] = target: T2, Escherichia coli RecO; test: ITC; peptide in the syringe titrated into RecO in the cell; 50 mM HEPES pH 7.5, 50 mM NaCl, 25% glycerol, 1 mM TCEP; model A + B = C, stoichiometry fixed to 1:1, incompetent fraction fitted
[3] = target: T2, Escherichia coli RecO; test: fluorescence polarisation; competition fluorescence anisotropy: 0.5 µM RecO, 50 nM F-wtSSB tracer, 0–500 µM unlabeled peptide, 30 min at room temperature, read at 25 °C; 20 mM Tris-HCl pH 8.0, 200 mM NaCl, 1 mM 2-mercaptoethanol, 10% glycerol, 0.01% Triton-X 100
[4] = target: T1, E. coli Exonuclease I; test: fluorescence polarisation; competition fluorescence anisotropy: 0.5 µM ExoI, 50 nM F-wtSSB tracer, 0–500 µM unlabeled peptide, 30 min at room temperature, read at 25 °C; 20 mM Tris-HCl pH 8.0, 100 mM NaCl, 1 mM MgCl2, 1 mM 2-mercaptoethanol, 10% glycerol
[5] = target: T2, Escherichia coli RecO; test: fluorescence polarisation; competition fluorescence anisotropy: 0.5 µM RecO, 50 nM F-wtSSB tracer, 0–500 µM unlabeled peptide, 30 min at room temperature, read at 25 °C; 20 mM Tris-HCl pH 8.0, 200 mM NaCl, 1 mM 2-mercaptoethanol, 10% glycerol, 0.01% Triton-X 100; remark: listed apart in the source
[6] = target: T1, E. coli Exonuclease I; test: fluorescence polarisation; direct fluorescence anisotropy: ExoI serially diluted from 16 µM, 50 nM fluorescein-labelled peptide, 30 min, 25 °C; 20 mM Tris-HCl pH 8.0, 100 mM NaCl, 1 mM MgCl2, 1 mM 2-mercaptoethanol, 10% glycerol
[7] = target: T2, Escherichia coli RecO; test: fluorescence polarisation; direct fluorescence anisotropy: RecO serially diluted from 7.5 µM, 50 nM fluorescein-labelled peptide, 30 min, 25 °C; 20 mM Tris-HCl pH 8.0, 200 mM NaCl, 1 mM 2-mercaptoethanol, 10% glycerol, 0.01% Triton-X 100
[8] = target: T1, E. coli Exonuclease I; test: fluorescence polarisation; competition fluorescence anisotropy: 0.5 µM ExoI, 50 nM F-wtSSB tracer, 0–500 µM unlabeled peptide, 30 min at room temperature, read at 25 °C; 20 mM Tris-HCl pH 8.0, 100 mM NaCl, 1 mM MgCl2, 1 mM 2-mercaptoethanol, 10% glycerol; remark: listed apart in the source

Binder | Kd [1] [nM] | dH [1] [kcal/mol] | stoichiometry N [1] | EC50 [6] [nM] | EC50 [7] [nM] | also measured
Ac-DFDDDIPF (also called wild-type SSB-Ct; source: synthetic peptide (solid phase, HPLC purified)) [wtSSB-Ct, octapeptide identical to the SSB C-terminal acidic tip (residues 171-178 of SSB)] | 3070 | -10.7 | 0.959 |  |  | Kd [2]: 140 nM; dH [2]: -7.54 kcal/mol; stoichiometry N [2]: 1; IC50 [3]: 4660 ± 240 nM; IC50 [4]: 4540 ± 340 nM
Ac-DFDDDLPF (E. coli SSB C-terminal tip (SSB-Ct), residues 171-178; numbers count on: the octapeptide (position 1 = SSB residue 171); also called isoleucine to leucine at position 6; source: synthetic peptide) [mSSB-Ct Leu6 (unlabelled single mutant)] |  |  |  |  |  | IC50 [5]: 3220 nM
{5,6‑carboxyfluorescein}-DFDDD[Nle]PF [F-nLe6 (fluorescein-labelled single mutant)] |  |  |  | 200 ± 10 | 200 ± 10 | 
Ac-E[Phe(4-CF3)]D[β3hD]EL[Pip′][Phe(4-CF3)] (not fully specified; printed as E1-sSSB-Ct (Glu–4-CF3-Phe–Asp–β^3-Asp–Glu–Leu–Pip–4-CF3-Phe)) [E1-sSSB-Ct (Glu–4-CF3-Phe–Asp–β^3-Asp–Glu–Leu–Pip–4-CF3-Phe)] | 20 | -17.4 | 1 |  |  | IC50 [8]: 170 nM
{5,6‑carboxyfluorescein}-GGDFDDDIPF (two glycines between the 5,6-carboxyfluorescein and the peptide; also called F-SSB-Ct; F-wtSSB-Ct; source: synthetic peptide (solid phase, HPLC purified)) [fluorescein-labeled wtSSB-Ct] |  |  |  | 350 ± 40 | 370 ± 30 | 
{5,6‑carboxyfluorescein}-GGDFDDEIPF (two glycines between the 5,6-carboxyfluorescein and the peptide; E. coli SSB-Ct, residues 171-178; numbers count on: the octapeptide (position 1 = SSB residue 171); One of Compounds 54-62 of the Supplementary Material; also called F-mSSB Glu5; source: synthetic peptide) [F-Glu5 (fluorescein-labelled single mutant)] |  |  |  | 110 ± 10 | 200 ± 20 | 

Source: publication PMC10143822, “Structural Adaptation of the Single-Stranded DNA-Binding Protein C-Terminal to DNA Metabolizing Partners Guides Inhibitor Design” (Pharmaceutics, 2023)
